Assay results taken from patent publication US20190040102A1 (CDRD VENTURES, published 2019).
Starred links: 1 amine or outer side, 2 acyl side, 3 side chain; linkers in the order of their positions; H or OH if unused. Positions of bridges follow the written chain, without caps; N, C: chain ends. Non-standard residues stand in square brackets, D forms with d. *: point of attachment. Tyr(Me) = 4-OMe-Phe, COc1ccc(C[C@H](N[*:1])C(=O)[*:2])cc1; dPhe(4-CONH2) = NC(=O)c1ccc(C[C@@H](N)C(=O)O)cc1; Phe(4-Cl) = N[C@@H](Cc1ccc(Cl)cc1)C(=O)O; dPhe(4-Cl) = N[C@H](Cc1ccc(Cl)cc1)C(=O)O; dCit = NC(=O)NCCC[C@@H](N)C(=O)O; Tle = CC(C)(C)[C@H](N)C(=O)O; Nicotinoyl = O=C(c1cccnc1)*

B1: Compound 26: H-Cpa-cyclo[DCys-Tyr-D-(4-carbamoyl)Phe-(N-Acetyl)Lys-Thr-Cys]-DTyr-NH2 (peptide)
peptide: XXYXXTCX
HELM: PEPTIDE1{[N[C@@H](Cc1ccc(Cl)cc1)C(=O)[*:2]].[dC].Y.[NC(=O)c1ccc(C[C@@H](N[*:1])C(=O)[*:2])cc1].K.T.C.[dY].[am]}|PEPTIDE2{[ac]}$PEPTIDE1,PEPTIDE2,5:R3-1:R2|PEPTIDE1,PEPTIDE1,2:R3-7:R3$$$V2.0
SMILES: CC(=O)NCCCC[C@@H]1NC(=O)[C@@H](Cc2ccc(C(N)=O)cc2)NC(=O)[C@H](Cc2ccc(O)cc2)NC(=O)[C@H](NC(=O)[C@@H](N)Cc2ccc(Cl)cc2)CSSC[C@@H](C(=O)N[C@H](Cc2ccc(O)cc2)C(N)=O)NC(=O)[C@H]([C@@H](C)O)NC1=O
B2: Compound 29: H-Cpa-cyclo[DCys-Tyr-D-(4-carbamoyl)Phe-Arg-Thr-Cys]-DTyr-NH2 (peptide)
peptide: XXYXRTCX
HELM: PEPTIDE1{[N[C@@H](Cc1ccc(Cl)cc1)C(=O)[*:2]].[dC].Y.[NC(=O)c1ccc(C[C@@H](N[*:1])C(=O)[*:2])cc1].R.T.C.[dY].[am]}$PEPTIDE1,PEPTIDE1,2:R3-7:R3$$$V2.0
SMILES: C[C@@H](O)[C@@H]1NC(=O)[C@H](CCCNC(=N)N)NC(=O)[C@@H](Cc2ccc(C(N)=O)cc2)NC(=O)[C@H](Cc2ccc(O)cc2)NC(=O)[C@H](NC(=O)[C@@H](N)Cc2ccc(Cl)cc2)CSSC[C@@H](C(=O)N[C@H](Cc2ccc(O)cc2)C(N)=O)NC1=O
B3: Compound 40: H-Cpa-cyclo[DCys-Tyr-D-(4-carbamoyl)Phe-Lys-Thr-Cys]-DPhe-NH2 (peptide)
peptide: XXYXKTCX
HELM: PEPTIDE1{[N[C@@H](Cc1ccc(Cl)cc1)C(=O)[*:2]].[dC].Y.[NC(=O)c1ccc(C[C@@H](N[*:1])C(=O)[*:2])cc1].K.T.C.[dF].[am]}$PEPTIDE1,PEPTIDE1,2:R3-7:R3$$$V2.0
SMILES: C[C@@H](O)[C@@H]1NC(=O)[C@H](CCCCN)NC(=O)[C@@H](Cc2ccc(C(N)=O)cc2)NC(=O)[C@H](Cc2ccc(O)cc2)NC(=O)[C@H](NC(=O)[C@@H](N)Cc2ccc(Cl)cc2)CSSC[C@@H](C(=O)N[C@H](Cc2ccccc2)C(N)=O)NC1=O
B4: Compound 42: H-Cpa-cyclo[DCys-Tyr-D-(4-carbamoyl)Phe-Lys-Thr-Cys]-4-Cl-D-Phe-NH2 (peptide)
peptide: H-[Phe(4-Cl)][dC]Y[dPhe(4-CONH2)]KTC[dPhe(4-Cl)]-NH2
modifications: disulfide 2-7
SMILES: C[C@@H](O)[C@@H]1NC(=O)[C@H](CCCCN)NC(=O)[C@@H](Cc2ccc(C(N)=O)cc2)NC(=O)[C@H](Cc2ccc(O)cc2)NC(=O)[C@H](NC(=O)[C@@H](N)Cc2ccc(Cl)cc2)CSSC[C@@H](C(=O)N[C@H](Cc2ccc(Cl)cc2)C(N)=O)NC1=O
B5: Compound 31: H-Cpa-cyclo[DCys-Tyr-D-Cit-(N-Me)Lys-Thr-Cys]-DTyr-NH2 (peptide)
peptide: H-[Phe(4-Cl)][dC]Y[dCit]K(Me)TC[dY]-NH2
modifications: disulfide 2-7
SMILES: CNCCCC[C@@H]1NC(=O)[C@@H](CCCNC(N)=O)NC(=O)[C@H](Cc2ccc(O)cc2)NC(=O)[C@H](NC(=O)[C@@H](N)Cc2ccc(Cl)cc2)CSSC[C@@H](C(=O)N[C@H](Cc2ccc(O)cc2)C(N)=O)NC(=O)[C@H]([C@@H](C)O)NC1=O
B6: Compound 30: H-Cpa-cyclo[D-Cys-Tyr-D-Lys(Nε-nicotinoyl)-Lys(Nε-Me)-Thr-Cys]-D-Tyr-NH2 (peptide)
peptide: H-[Phe(4-Cl)][dC]Y[dK](Nicotinoyl)K(Me)TC[dY]-NH2
modifications: disulfide 2-7
SMILES: CNCCCC[C@@H]1NC(=O)[C@@H](CCCCNC(=O)c2cccnc2)NC(=O)[C@H](Cc2ccc(O)cc2)NC(=O)[C@H](NC(=O)[C@@H](N)Cc2ccc(Cl)cc2)CSSC[C@@H](C(=O)N[C@H](Cc2ccc(O)cc2)C(N)=O)NC(=O)[C@H]([C@@H](C)O)NC1=O
B7: Compound 39: H-Cpa-cyclo[Cys-Tyr-D-(4-carbamoyl)Phe-Lys-Thr-Cys]-DTyr-NH2 (peptide)
peptide: XCYXKTCX
HELM: PEPTIDE1{[N[C@@H](Cc1ccc(Cl)cc1)C(=O)[*:2]].C.Y.[NC(=O)c1ccc(C[C@@H](N[*:1])C(=O)[*:2])cc1].K.T.C.[dY].[am]}$PEPTIDE1,PEPTIDE1,2:R3-7:R3$$$V2.0
SMILES: C[C@@H](O)[C@@H]1NC(=O)[C@H](CCCCN)NC(=O)[C@@H](Cc2ccc(C(N)=O)cc2)NC(=O)[C@H](Cc2ccc(O)cc2)NC(=O)[C@@H](NC(=O)[C@@H](N)Cc2ccc(Cl)cc2)CSSC[C@@H](C(=O)N[C@H](Cc2ccc(O)cc2)C(N)=O)NC1=O
B8: Compound 35: H-Cpa-cyclo[DCys-Phe-D-(4-carbamoyl)Phe-Lys-Thr-Cys]-DTyr-NH2 (peptide)
peptide: XXFXKTCX
HELM: PEPTIDE1{[N[C@@H](Cc1ccc(Cl)cc1)C(=O)[*:2]].[dC].F.[NC(=O)c1ccc(C[C@@H](N[*:1])C(=O)[*:2])cc1].K.T.C.[dY].[am]}$PEPTIDE1,PEPTIDE1,2:R3-7:R3$$$V2.0
SMILES: C[C@@H](O)[C@@H]1NC(=O)[C@H](CCCCN)NC(=O)[C@@H](Cc2ccc(C(N)=O)cc2)NC(=O)[C@H](Cc2ccccc2)NC(=O)[C@H](NC(=O)[C@@H](N)Cc2ccc(Cl)cc2)CSSC[C@@H](C(=O)N[C@H](Cc2ccc(O)cc2)C(N)=O)NC1=O
B9: Compound 43: H-Cpa-cyclo[DCys-4-Cl-Phe-D-(4-carbamoyl)Phe-Lys-Thr-Cys]-4-Cl-D-Phe-NH2 (peptide)
peptide: H-[Phe(4-Cl)][dC][Phe(4-Cl)][dPhe(4-CONH2)]KTC[dPhe(4-Cl)]-NH2
modifications: disulfide 2-7
SMILES: C[C@@H](O)[C@@H]1NC(=O)[C@H](CCCCN)NC(=O)[C@@H](Cc2ccc(C(N)=O)cc2)NC(=O)[C@H](Cc2ccc(Cl)cc2)NC(=O)[C@H](NC(=O)[C@@H](N)Cc2ccc(Cl)cc2)CSSC[C@@H](C(=O)N[C@H](Cc2ccc(Cl)cc2)C(N)=O)NC1=O
B10: Compound 37: H-Cpa-cyclo[DCys-Tyr-D-(4-carbamoyl)Phe-Lys-Ser-Cys]-DTyr-NH2 (peptide)
peptide: XXYXKSCX
HELM: PEPTIDE1{[N[C@@H](Cc1ccc(Cl)cc1)C(=O)[*:2]].[dC].Y.[NC(=O)c1ccc(C[C@@H](N[*:1])C(=O)[*:2])cc1].K.S.C.[dY].[am]}$PEPTIDE1,PEPTIDE1,2:R3-7:R3$$$V2.0
SMILES: NCCCC[C@@H]1NC(=O)[C@@H](Cc2ccc(C(N)=O)cc2)NC(=O)[C@H](Cc2ccc(O)cc2)NC(=O)[C@H](NC(=O)[C@@H](N)Cc2ccc(Cl)cc2)CSSC[C@@H](C(=O)N[C@H](Cc2ccc(O)cc2)C(N)=O)NC(=O)[C@H](CO)NC1=O
B11: Compound 38: H-Cpa-cyclo[DCys-4-OMe-Phe-D-(4-carbamoyl)Phe-Lys-Thr-Cys]-DTyr-NH2 (peptide)
peptide: H-[Phe(4-Cl)][dC][Tyr(Me)][dPhe(4-CONH2)]KTC[dY]-NH2
modifications: disulfide 2-7
SMILES: COc1ccc(C[C@@H]2NC(=O)[C@H](NC(=O)[C@@H](N)Cc3ccc(Cl)cc3)CSSC[C@@H](C(=O)N[C@H](Cc3ccc(O)cc3)C(N)=O)NC(=O)[C@H]([C@@H](C)O)NC(=O)[C@H](CCCCN)NC(=O)[C@@H](Cc3ccc(C(N)=O)cc3)NC2=O)cc1
B12: Compound 28: H-Cpa-cyclo[DCys-Tyr-D-(4-(4-methoxyphenyl)ureido)Phe-Lys-Thr-Cys]-DTyr-NH2 (peptide)
peptide: XXYXKTCX
HELM: PEPTIDE1{[N[C@@H](Cc1ccc(Cl)cc1)C(=O)[*:2]].[dC].Y.[COc1ccc(NC(=O)Nc2ccc(C[C@@H](N[*:1])C(=O)[*:2])cc2)cc1].K.T.C.[dY].[am]}$PEPTIDE1,PEPTIDE1,2:R3-7:R3$$$V2.0
SMILES: COc1ccc(NC(=O)Nc2ccc(C[C@H]3NC(=O)[C@H](Cc4ccc(O)cc4)NC(=O)[C@H](NC(=O)[C@@H](N)Cc4ccc(Cl)cc4)CSSC[C@@H](C(=O)N[C@H](Cc4ccc(O)cc4)C(N)=O)NC(=O)[C@H]([C@@H](C)O)NC(=O)[C@H](CCCCN)NC3=O)cc2)cc1
B13: Compound 34: H-Cpa-cyclo[DCys-Tyr-D-4-(carbamoyl)Phe-Lys-tBu-Gly-Cys]-DTyr-NH2 (peptide)
peptide: H-[Phe(4-Cl)][dC]Y[dPhe(4-CONH2)]K[Tle]C[dY]-NH2
modifications: disulfide 2-7
SMILES: CC(C)(C)[C@@H]1NC(=O)[C@H](CCCCN)NC(=O)[C@@H](Cc2ccc(C(N)=O)cc2)NC(=O)[C@H](Cc2ccc(O)cc2)NC(=O)[C@H](NC(=O)[C@@H](N)Cc2ccc(Cl)cc2)CSSC[C@@H](C(=O)N[C@H](Cc2ccc(O)cc2)C(N)=O)NC1=O
B14: Compound 32: H-Cpa-cyclo[D-Cys-Tyr-D-Phe(4-carbamoyl)-Lys(N-diMe)-Thr-Cys]-D-Tyr-NH2 (peptide)
peptide: H-[Phe(4-Cl)][dC]Y[dPhe(4-CONH2)]K(diMe)TC[dY]-NH2
modifications: disulfide 2-7
B15: Compound 36: H-Cpa-cyclo[DCys-Cpa-D-(4-carbamoyl)Phe-Lys-Thr-Cys]-DTyr-NH2 (peptide)
peptide: H-[Phe(4-Cl)][dC][Phe(4-Cl)][dPhe(4-CONH2)]KTC[dY]-NH2
modifications: disulfide 2-7
SMILES: C[C@@H](O)[C@@H]1NC(=O)[C@H](CCCCN)NC(=O)[C@@H](Cc2ccc(C(N)=O)cc2)NC(=O)[C@H](Cc2ccc(Cl)cc2)NC(=O)[C@H](NC(=O)[C@@H](N)Cc2ccc(Cl)cc2)CSSC[C@@H](C(=O)N[C@H](Cc2ccc(O)cc2)C(N)=O)NC1=O
B16: Compound 33: H-Cpa-cyclo[DCys-Tyr-D-4-(carbamoyl)Phe-Lys-Val-Cys]-DTyr-NH2 (peptide)
peptide: XXYXKVCX
HELM: PEPTIDE1{[N[C@@H](Cc1ccc(Cl)cc1)C(=O)[*:2]].[dC].Y.[NC(=O)c1ccc(C[C@@H](N[*:1])C(=O)[*:2])cc1].K.V.C.[dY].[am]}$PEPTIDE1,PEPTIDE1,2:R3-7:R3$$$V2.0
SMILES: CC(C)[C@@H]1NC(=O)[C@H](CCCCN)NC(=O)[C@@H](Cc2ccc(C(N)=O)cc2)NC(=O)[C@H](Cc2ccc(O)cc2)NC(=O)[C@H](NC(=O)[C@@H](N)Cc2ccc(Cl)cc2)CSSC[C@@H](C(=O)N[C@H](Cc2ccc(O)cc2)C(N)=O)NC1=O
B17: Compound 27: H-Cpa-cyclo[DCys-Tyr-D-(4-Benzamidophenyl)Phe-Lys-Thr-Cys]-DTyr-NH2 (peptide)
peptide: H-[Phe(4-Cl)][dC]Y[dPhe(4-benzamidophenyl)]KTC[dY]-NH2
modifications: disulfide 2-7
B18: Compound 41: H-Cpa-cyclo[DCys-Phe-D-(4-carbamoyl)Phe-Lys-Thr-Cys]-DPhe-NH2 (peptide)
peptide: XXFXKTCX
HELM: PEPTIDE1{[N[C@@H](Cc1ccc(Cl)cc1)C(=O)[*:2]].[dC].F.[NC(=O)c1ccc(C[C@@H](N[*:1])C(=O)[*:2])cc1].K.T.C.[dF].[am]}$PEPTIDE1,PEPTIDE1,2:R3-7:R3$$$V2.0
SMILES: C[C@@H](O)[C@@H]1NC(=O)[C@H](CCCCN)NC(=O)[C@@H](Cc2ccc(C(N)=O)cc2)NC(=O)[C@H](Cc2ccccc2)NC(=O)[C@H](NC(=O)[C@@H](N)Cc2ccc(Cl)cc2)CSSC[C@@H](C(=O)N[C@H](Cc2ccccc2)C(N)=O)NC1=O

The binders below were run against somatostatin receptor type 2 (SSTR2) (UniProt P30874 1-369) (assay: cell-based or functional assay).
somatostatin receptor type 2 (SSTR2), sequence (P30874 whole entry): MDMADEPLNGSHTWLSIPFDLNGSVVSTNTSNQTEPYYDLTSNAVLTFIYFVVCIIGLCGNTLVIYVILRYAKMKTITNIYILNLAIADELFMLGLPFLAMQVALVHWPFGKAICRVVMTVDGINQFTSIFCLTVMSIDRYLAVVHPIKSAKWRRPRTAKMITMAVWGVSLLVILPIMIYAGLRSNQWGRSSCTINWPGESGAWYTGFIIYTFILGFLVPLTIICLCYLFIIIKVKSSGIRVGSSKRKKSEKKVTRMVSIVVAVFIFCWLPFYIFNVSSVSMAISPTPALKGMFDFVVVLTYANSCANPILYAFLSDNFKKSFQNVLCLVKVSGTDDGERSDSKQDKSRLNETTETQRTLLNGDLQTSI
With B1 the “IC50 (PathHunter β-Arrestin, antagonist mode)” value (“IC50” below) was over 1000 nM. For B2, the “IC50” value was 398 nM. With B3 the “IC50” value was 16.2 nM. In the case of B4, the “IC50” value is reported as 9.84 nM. With B5 the “IC50” value was 70.4 nM. B6 was tested, and the “IC50” value was 177 nM. In the case of B7, the “IC50” value is reported as over 1000 nM. B8 was tested, and the “IC50” value was 35.9 nM. B9 was tested, and the “IC50” value was 25.6 nM. With B10 the “IC50” value was 10.6 nM. In the case of B11, the “IC50” value is reported as 24.4 nM. With B12 the “IC50” value was 104 nM. In the case of B13, the “IC50” value is reported as 43.4 nM. B14 was tested, and the “IC50” value was 2.46 nM. With B15 the “IC50” value was 28.7 nM. In the case of B16, the “IC50” value is reported as 56 nM. For B17, the “IC50” value was 34.7 nM. B18 was tested, and the “IC50” value was 24.4 nM.
